In patent publication US20160355588A1 (published 2016):
Read-outs that look alike come from different tables or passages of the source.

Experiments:
CD3 on Jurkat T cells [1] = target: T1, CD3 on Jurkat T cells (human, UniProt P07766 23-207); assay: whole cell binding
CD3 on Jurkat T cells [2] = target: T1, CD3 on Jurkat T cells; assay: whole cell binding; remark: listed apart in the source
CD3 on Jurkat T cells [3] = target: T1, CD3 on Jurkat T cells
CD3 on Jurkat T cells [4] = target: T1, CD3 on Jurkat T cells; remark: listed apart in the source
v6475 = assay: whole cell binding
v1653 = assay: whole cell binding

Row | Kd (CD3 on Jurkat T cells [1]) [nM] | Kd (CD3 on Jurkat T cells [2]) [nM] | Binder | further results
1 | ~30 | ~30 | v875 (bispecific antibody) chain 1: DIQLTQSPASLAVSLGQRATISCKASQSVDYDGDSYLNWYQQIPGQPPKLLIYDASNLVSGIPPRFSGSGSGTDFTLNIHPVEKVDAATYHCQQSTEDPWTFGGGTKLEIKGGGGSGGGGSGGGGSQVQLQQSGAELVRPGSSVKISCKASGYAFSSYWMNWVKQRPGQGLEWIGQIWPGDGDTNYNGKFKGKATLTADESSSTAYMQLSSLASEDSAVYFCARRETTTVGRYYYAMDYWGQGTTVTVSSAAEPKSSDKTHTCPPCPAPELLGGPSVFLFPPKPKDTLMISRTPEVTCVVVDVSHEDPEVKFNWYVDGVEVHNAKTKPREEQYNSTYRVVSVLTVLHQDWLNGKEYKCKVSNKALPAPIEKTISKAKGQPREPQVYTYPPSRDELTKNQVSLTCLVKGFYPSDIAVEWESNGQPENNYKTTPPVLDSDGSFALVSKLTVDKSRWQQGNVFSCSVMHEALHNHYTQKSLSLSPGK chain 2: not shown | –
2 | ~5 | ~5 | v1853 (bispecific antibody) heavy: QVQLVQSGGGVVQPGRSLRLSCKASGYTFTRYTMHWVRQAPGKGLEWIGYINPSRGYTNYNQKVKDRFTISRDNSKNTAFLQMDSLRPEDTGVYFCARYYDDHYCLDYWGQGTPVTVSSASTKGPSVFPLAPSSKSTSGGTAALGCLVKDYFPEPVTVSWNSGALTSGVHTFPAVLQSSGLYSLSSVVTVPSSSLGTQTYICNVNHKPSNTKVDKKVEPKSCDKTHTCPPCPAPELLGGPSVFLFPPKPKDTLMISRTPEVTCVVVDVSHEDPEVKFNWYVDGVEVHNAKTKPREEQYNSTYRVVSVLTVLHQDWLNGKEYKCKVSNKALPAPIEKTISKAKGQPREPQVYVYPPSRDELTKNQVSLTCLVKGFYPSDIAVEWESNGQPENNYKTTPPVLDSDGSFALVSKLTVDKSRWQQGNVFSCSVMHEALHNHYTQKSLSLSPGK not shown light: DIQMTQSPSSLSASVGDRVTITCSASSSVSYMNWYQQTPGKAPKRWIYDTSKLASGVPSRFSGSGSGTDYTFTISSLQPEDIATYYCQQWSSNPFTFGQGTKLQITRTVAAPSVFIFPPSDEQLKSGTASVVCLLNNFYPREAKVQWKVDNALQSGNSQESVTEQDSKDSTYSLSSTLTLSKADYEKHKVYACEVTHQGLSSPVTKSFNRGEC | –
3 | – | – | v6750 (bispecific antibody) heavy: QVQLQQSGAELVRPGSSVKISCKASGYAFSSYWMNWVKQRPGQGLEWIGQIWPGDGDTNYNGKFKGKATLTADESSSTAYMQLSSLASEDSAVYFCARRETTTVGRYYYAMDYWGQGTTVTVSSASTKGPSVFPLAPSSKSTSGGTAALGCLVKDYFPEPVTVSWNSGALTSGVHTFPAVLQSSGLYSLSSVVTVPSSSLGTQTYICNVNHKPSNTKVDKKVEPKSCDKTHTCPPCPAPELLGGPSVFLFPPKPKDTLMISRTPEVTCVVVDVSHEDPEVKFNWYVDGVEVHNAKTKPREEQYNSTYRVVSVLTVLHQDWLNGKEYKCKVSNKALPAPIEKTISKAKGQPREPQVYVYPPSRDELTKNQVSLTCLVKGFYPSDIAVEWESNGQPENNYKTTPPVLDSDGSFALVSKLTVDKSRWQQGNVFSCSVMHEALHNHYTQKSLSLSPG not shown light: not shown | Kd (CD3 on Jurkat T cells [3]): ~30 nM; Kd (CD3 on Jurkat T cells [4]): ~30 nM
4 | – | – | Raji B cells (receptor) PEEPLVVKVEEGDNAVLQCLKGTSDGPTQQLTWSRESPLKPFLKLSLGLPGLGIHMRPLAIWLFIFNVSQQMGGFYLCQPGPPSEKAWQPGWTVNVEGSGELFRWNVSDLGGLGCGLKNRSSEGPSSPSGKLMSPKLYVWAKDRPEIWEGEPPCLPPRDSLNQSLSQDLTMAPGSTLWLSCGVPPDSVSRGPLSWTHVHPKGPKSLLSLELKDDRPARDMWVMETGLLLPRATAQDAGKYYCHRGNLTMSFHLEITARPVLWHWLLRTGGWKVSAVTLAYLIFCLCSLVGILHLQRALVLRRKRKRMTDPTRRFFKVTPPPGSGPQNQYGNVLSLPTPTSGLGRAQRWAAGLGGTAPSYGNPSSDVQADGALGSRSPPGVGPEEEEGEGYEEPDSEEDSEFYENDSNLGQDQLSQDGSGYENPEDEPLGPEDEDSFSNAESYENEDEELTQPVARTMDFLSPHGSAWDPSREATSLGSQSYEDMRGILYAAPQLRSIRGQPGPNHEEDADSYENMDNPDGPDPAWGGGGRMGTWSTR | Kd (v6475): 1.5 nM; Kd (v1653): 1.4 nM
